Conditions: Bos taurus; pH 8.5; Thermal; CD; Glycine; reversible: YES; whole UniProt chain shown

B1: Adrenodoxin, mitochondrial wild type, P00257 (protein)
chain: MAARLLRVASAALGDTAGRWRLLARPRAGAGGLRGSRGPGLGGGAVATRTLSVSGRAQSSSEDKITVHFINRDGETLTTKGKIGDSLLDVVVQNNLDIDGFGACEGTLACSTCHLIFEQHIFEKLEAITDEENDMLDLAYGLTDRSRLGCQICLTKAMDNMTVRVPDAVSDARESIDMGMNSSKIE
Tm: 51.9 °C

Reference: FireProtDB (doi:10.1021/bi020450z)
